The results in this text go back to patent US20240343820A1.

The target in the test is anti-CD20 scFv-14. The experiment in a line: Octet (BLI) equilibrium binding, hybridoma supernatant; antigen format not stated.

B1: 23C11 (antibody, V domains shown)
VH: QVQLQQPGAELVRPGSSVKLSCKASGYTFTSYWMHWVKQRPIQGLEWIGNIDPSDSETHYNQKFKDKATLTVDKSSSTAYMQLSSLTSEDSAVYYCARAGRVFYYAMDYWGQGTSVTVSS
VL: DIQMTQTTSSLSASLGDRVTISCRASQDISNYLNWYQQKPDGTVKLLIYYTSRLHSGVPSRFSGSGSGTDYSLTISNLEQEDIATYFCQQGNTLYTFGGGTKLEIK
As a reminder, the Kd is the concentration at which binding is half-saturated. As for B1, the Kd was 3.72 nM. That is a single-digit nanomolar value.

B2: 24C12 (antibody, V domains shown)
VH: QVQLQQSGAELMKPGASVKLSCKATGHTFTGYWIEWVKQRPGHGLEWIGEILPGSGSTNYNEKFKGKATFTADTSSNTAYMQLSSLTTEDSAIYYCAREGFAYWGQGTLVTVSA
VL: DIVMTQSHKFMSTSVGDRVSITCKASQDVGIAVAWYQQKPGQSPKLLIYWASTRHTGVPDRFTGSGSGTDFTLTISNVQSEDLADYFCQQYSSYPYTFGGGTKLEIK
B2 showed a Kd of 0.00138 nM.

B3: 22H5 (antibody, V domains shown)
VH: DVQLQESGPGMVKPSQSLSLTCTVTGYSITSGYDWHWIRHFPGNKLEWMGYISYSGSTNYNPSLKSRISITHDTSKNHFFLKLNSVTTEDTATYYCAREGYSNYFDSWGQGTTLTVSS
VL: SIVMTQTPKFLLVSAGDRVTITCKASQSVSNDVAWYQQKPGQSPKLLIFYASNRYTGVPDRFTGSGYGTDFTFTISTVQAEDLAVYFCQQDYSSPLAFGAGTKLELK
In turn, B3 returned a Kd of 0.633 nM. This Kd lies about 460-fold higher than the previous one.

B4: 24C7 (antibody, V domains shown)
VH: QVQLQQSGPELVKPGASVKISCKASGYSFTSYYIHWVKQRPGQGLEWIGWIYPGSGNTKYNEKFKGKATLTADTSSSTAYMQLSSLTSEDSAVYYCARCVLLDYFDYWGQGTTLTVSS
VL: DIQMTQSPSSLSASLGERVSLTCRASQEISGYLSWLQQKPDGTIKRLIYAASTLDSGVPKRFSGSRSGSDYSLTISSLESEDFADYYCLQYASYPYTFGGGTKLEIK
The molecule B4 gave a Kd of 3.9 nM.

B5: 25F10 (antibody, V domains shown)
VH: QVHLQQSGPELVKPGASVKISCKASGYSFTSYYIHWVKQRPGQGLEWIGWIYPRSGNTNYNEKFKDKATLAADTSSSAAYMQLSSLTSEDSAVYYCGRSDFYYGSDYWGQGTTLTVSS
VL: DIQMTQSPSSLSASLGERVSLTCRASQEISGYLGWLQQKPDGTIKRLIYAASTLDSGVPRRFSGSRSGSDYSLTFSSLESEDFADYYCLQYASYPWTFGGGTKLEIK
With B5, the Kd is 0.00408 nM.

B6: 23E1 (antibody, V domains shown)
VH: EVQLQQSGPVLVKPGPSVKISCKASGFTFTDYYMHWVKQSHGKSLEWIGLVYPYNGGTSYNQKFKGKATLTVDTSSSTAYMELNSLTSEDSAVYYCARRGQRVWYFDVWGTGTTVTVSS
VL: DIQMTQSPSSLSASLGGKVTITCKASQDINKYIAWYQHKPGKGPRLLIHYTSTLQPGIPSRFSGSGSGRDYSFSISNLEPEDIATYYCLQYDNLYTFGGGTKLEIK
On to B6, for which the Kd was determined as 3.28 nM. Against the preceding molecule, the Kd is about 800-fold higher.

B7: 25B2 (antibody, V domains shown)
VH: QIQLVQSGPELKKPGETVKISCKASGYTFTTYGMSWVKQAPGKGLKWMGWINTYSGVPTYADDFKGRFAFSLETSASTAYLQINNLKNEDTATYFCARTYYGNYFDYWGQGTTLTVSS
VL: DIQMTQSPSSLSASLGGKVTITCKASQDINKYIAWYQHKPGKGPRLLIHYTSTLQPGIPSRFSGSGSGRDYSFSISNLEPEDIATYYCLQYDNLYTFGGGTKLEIK
B7: the Kd came out at 0.382 nM.

B8: 29F8 (antibody, V domains shown)
VH: QIQLVQSGPELKKPGETVKISCKASGYTFTTYGMSWVKQAPGKGLKWMGWINTYSGVPTYADDFKGRFAFSLETSASTAYLQINNLKNEDSATYFCARYYYGSNYDYWGQGTTLTVSS
VL: DIQMTQSPASLSASVGETVTITCRASENIYSYLAWYQQKQGKSPQLLVNNAKTLAEGVPSRFSGSGSGTQFSLKINSLQPEDFGSYYCQHHYGSPPTFGSGTKLEIK
Consider B8, for which the Kd stood at 0.00131 nM.

B9: 29F1 (antibody, V domains shown)
VH: QIQLVQSGPELKKPGETVKISCKASGYTFTTYGMSWVKQAPGKGLKWMGWINTYSGVPTYADDFKGRFAFSLETSASTAYLQINNLKNEDTATYFCARFYYGSSFDYWGQGTTLTVSS
VL: DIQMTQSPASLSASVGETVTITCRASENIYSYLAWYQQKQGKSPQLLVYNAKTLAEGVPSRFSGSGSGTQFSLKINSLQPEDFGSYYCQHHYGTPLTFGAGTKLELK
Molecule B9 displayed a Kd of 0.0534 nM.
